In US20140186327:

Assays:
[1] = target: T1, soluble tissue factor (sTF), P13726
T1 chain: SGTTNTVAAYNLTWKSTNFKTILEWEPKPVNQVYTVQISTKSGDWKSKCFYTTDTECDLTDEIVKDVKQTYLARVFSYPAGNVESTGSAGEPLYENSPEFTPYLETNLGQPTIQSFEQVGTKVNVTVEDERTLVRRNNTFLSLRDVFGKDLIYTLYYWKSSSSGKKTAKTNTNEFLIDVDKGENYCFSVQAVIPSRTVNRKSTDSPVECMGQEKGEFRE

For FXa from Novagen, the “conversion of FVII-XTEN to FVIIa-XTEN (reducing SDS-PAGE)” value (FVII-XTEN_AE288) was “Reducing SDS-PAGE indicated a complete conversion of FVII-XTEN proteins to FVIIa-XTEN proteins” and the “conversion of FVII-XTEN to FVIIa-XTEN (reducing SDS-PAGE)” value (FVII-XTEN_AE864) was “Reducing SDS-PAGE indicated a complete conversion of FVII-XTEN proteins to FVIIa-XTEN proteins”.

For FXI protease, the Concentration by Activity (ng/ml), aPTT based factor assay (FIX-KLTRAET-XTEN_AE864) was 7 ng/mL, the “Fraction Active (activity / ELISA)” value (FIX-KLTRAET-XTEN_AE864) was 30% and the “fold enhancement of clotting activity against FIX-XTEN (aPTT based factor assay)” value (from here on “fold enhancement of clotting activity”) (FIX-KLTRAET-XTEN_AE864) was “In all three cases the presence of a FXI cleavage site enhanced the clotting activity by greater than 30-fold”. For the same molecule, the Concentration by Activity (ng/ml), aPTT based factor assay (FIX-/FXI/-XTEN_AE864) was 11 ng/mL, the “Fraction Active (activity / ELISA)” value (FIX-/FXI/-XTEN_AE864) was 40% and the “fold enhancement of clotting activity” value (FIX-/FXI/-XTEN_AE864) was “In all three cases the presence of a FXI cleavage site enhanced the clotting activity by greater than 30-fold”. For the same molecule, the Concentration by Activity (ng/ml), aPTT based factor assay (FIX-DFTRVVG-XTEN_AE864) was 9 ng/mL, the “Fraction Active (activity / ELISA)” value (FIX-DFTRVVG-XTEN_AE864) was 34% and the “fold enhancement of clotting activity” value (FIX-DFTRVVG-XTEN_AE864) was “In all three cases the presence of a FXI cleavage site enhanced the clotting activity by greater than 30-fold”.

B1: FVIIa-AE288 (protein)
chain: AVFVTQEEAHGVLHRRRRANAFLEELRPGSLERECKEEQCSFEEAREIFKDAERTKLFWISYSDGDQCASSPCQNGGSCKDQLQSYICFCLPAFEGRNCETHKDDQLICVNENGGCEQYCSDHTGTKRSCRCHEGYSLLADGVSCTPTVEYPCGKIPILEKRNASKPQGRIVGGKVCPKGECPWQVLLLVNGAQLCGGTLINTIWVVSAAHCFDKIKNWRNLIAVLGEHDLSEHDGDEQSRRVAQVIIPSTYVPGTTNHDIALLRLHQPVVLTDHVVPLCLPERTFSERTLAFVRFSLVSGWGQLLDRGATALELMVLNVPRLMTQDCLQQSRKVGDSPNITEYMFCAGYSDGSKDSCKGDSGGPHATHYRGTWYLTGIVSWGQGCATVGHFGVYTRVSQYIEWLQKLMRSEPRPGVLLRAPFPGSPGTSESATPESGPGSEPATSGSETPGTSESATPESGPGSEPATSGSETPGTSESATPESGPGTSTEPSEGSAPGSPAGSPTSTEEGTSESATPESGPGSEPATSGSETPGTSESATPESGPGSPAGSPTSTEEGSPAGSPTSTEEGTSTEPSEGSAPGTSESATPESGPGTSESATPESGPGTSESATPESGPGSEPATSGSETPGSEPATSGSETPGSPAGSPTSTEEGTSTEPSEGSAPGTSTEPSEGSAPGSEPATSGSETPGTSESATPESGPGTSTEPSEGSAPGSSS
For B1, the “soluble tissue factor (sTF) induced clotting (Stago STA-Clot FVIIa activity assay)” value [1] was “an activity equivalent to 112 U/ml of FVIIa activity”.
